Consider 2 molecules from publication PMC12321301.

Read-outs that look alike come from different tables or passages of the source.

Series [1] deals with T1, cardiac troponin I (cTnI) (UniProt P19429 2-210). Kind of series: direct ELASA.
Series [2] concerns the target T1, cardiac troponin I (cTnI). Put plainly: direct ELASA. The source holds these as a separate data set.

T1 sequence (P19429 2-210): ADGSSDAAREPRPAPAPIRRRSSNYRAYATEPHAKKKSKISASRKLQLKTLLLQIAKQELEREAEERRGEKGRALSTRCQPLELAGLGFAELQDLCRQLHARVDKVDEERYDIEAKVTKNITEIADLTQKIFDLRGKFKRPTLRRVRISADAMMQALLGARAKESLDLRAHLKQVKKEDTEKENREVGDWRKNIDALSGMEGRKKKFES

As to CGTGCAGTACGCCAACCTTTCTCATGCGCTGCCCCTCTTA (ssDNA) [Tro4 (5'-biotin)], the binding result in series [1] is reported as “binds”. Consider CGCATGCCAAACGTTGCCTCATAGTTCCCTCCCCGTGTCC (ssDNA) [Tro6 (5'-thiol C6, HRP conjugate)], for which the binding result in series [2] was “binds”.
